Test results as given in article PMC10397247.
Like-named read-outs stand apart in the source and are kept apart here.

T1: APC9291-AA
T1 chain: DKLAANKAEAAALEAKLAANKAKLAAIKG

T2: APC9806-AA
T2 chain: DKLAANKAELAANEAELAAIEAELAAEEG

T3: 4H497-AA
T3 chain: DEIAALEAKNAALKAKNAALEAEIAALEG

T4: 4H656-AA
T4 chain: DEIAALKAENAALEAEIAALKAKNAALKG

T5: 4H3920-AA
T5 chain: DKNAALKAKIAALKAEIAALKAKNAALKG

T6: 4H478-AA
T6 chain: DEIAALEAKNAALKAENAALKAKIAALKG

T7: 4H675-AA
T7 chain: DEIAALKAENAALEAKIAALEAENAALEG

T8: 4H971-AA
T8 chain: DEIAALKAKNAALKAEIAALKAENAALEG

T9: 4H3939-AA
T9 chain: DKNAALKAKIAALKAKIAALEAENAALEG

T10: 4H428-AA
T10 chain: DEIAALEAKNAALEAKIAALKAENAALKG

T11: 4H3627-AA
T11 chain: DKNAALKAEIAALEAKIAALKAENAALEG

T12: 4H3655-AA
T12 chain: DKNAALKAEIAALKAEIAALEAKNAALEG

T13: 4H881-AA
T13 chain: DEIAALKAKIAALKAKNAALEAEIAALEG

T14: 4H794-AA
T14 chain: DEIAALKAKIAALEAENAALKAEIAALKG

T15: 4H429-AA
T15 chain: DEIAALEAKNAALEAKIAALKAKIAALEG

T16: 4H3606-AA
T16 chain: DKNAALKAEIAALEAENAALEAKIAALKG

T17: 4H48-AA
T17 chain: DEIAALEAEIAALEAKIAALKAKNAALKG

T18: 4H678-AA
T18 chain: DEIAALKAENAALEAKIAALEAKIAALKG

T19: 4H566-AA
T19 chain: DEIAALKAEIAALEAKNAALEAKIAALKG

T20: 4H3921-AA
T20 chain: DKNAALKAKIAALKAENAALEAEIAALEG

T21: 4H454-AA
T21 chain: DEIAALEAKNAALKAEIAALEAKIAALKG

T22: 4H342-AA
T22 chain: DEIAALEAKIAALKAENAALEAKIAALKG

T23: 4H3427-AA
T23 chain: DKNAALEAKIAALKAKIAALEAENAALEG

T24: 4H717-AA
T24 chain: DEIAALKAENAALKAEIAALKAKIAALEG

T25: 4H3844-AA
T25 chain: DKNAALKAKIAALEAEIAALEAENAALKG

T26: 4H605-AA
T26 chain: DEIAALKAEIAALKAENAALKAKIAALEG

T27: 4H906-AA
T27 chain: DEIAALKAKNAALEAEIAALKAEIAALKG

T28: 4H335-AA
T28 chain: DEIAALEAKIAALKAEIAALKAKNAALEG

T29: 4H993-AA
T29 chain: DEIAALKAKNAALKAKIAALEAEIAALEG

T30: 4H3343-AA
T30 chain: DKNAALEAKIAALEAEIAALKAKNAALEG

T31: 4H780-AA
T31 chain: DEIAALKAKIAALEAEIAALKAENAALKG

T32: 4H63-AA
T32 chain: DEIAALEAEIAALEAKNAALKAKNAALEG

T33: 4H483-AA
T33 chain: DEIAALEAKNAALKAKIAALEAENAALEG

T34: 4H317-AA
T34 chain: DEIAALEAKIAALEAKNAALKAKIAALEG

T35: 4H3112-AA
T35 chain: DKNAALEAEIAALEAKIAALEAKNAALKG

T36: 4H2949-AA
T36 chain: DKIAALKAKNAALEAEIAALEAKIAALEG

T37: 4H432-AA
T37 chain: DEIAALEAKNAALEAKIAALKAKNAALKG

T38: 4H446-AA
T38 chain: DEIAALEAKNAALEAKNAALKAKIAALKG

T39: 4H3974-AA
T39 chain: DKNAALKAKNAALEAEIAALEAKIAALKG

T40: 4H906-bN
T40 chain: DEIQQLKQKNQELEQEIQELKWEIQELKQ

T41: 4H850-bN
T41 chain: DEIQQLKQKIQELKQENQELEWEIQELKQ

B1: APC9291-AA (peptide)
chain: DKLAANKAEAAALEAKLAANKAKLAAIKG
B2: 4H3920-AA (peptide)
chain: DKNAALKAKIAALKAEIAALKAKNAALKG
B3: 4H3343-AA (peptide)
chain: DKNAALEAKIAALEAEIAALKAKNAALEG
B4: 4H483-AA (peptide)
chain: DEIAALEAKNAALKAKIAALEAENAALEG
B5: 4H2949-AA (peptide)
chain: DKIAALKAKNAALEAEIAALEAKIAALEG
B6: 4H3974-AA (peptide)
chain: DKNAALKAKNAALEAEIAALEAKIAALKG
B7: 4H317-AA (peptide)
chain: DEIAALEAKIAALEAKNAALKAKIAALEG
B8: 4H335-AA (peptide)
chain: DEIAALEAKIAALKAEIAALKAKNAALEG
B9: 4H850-bN (peptide)
chain: DEIQQLKQKIQELKQENQELEWEIQELKQ

Tests used:
APC9291-AA = target: T1, APC9291-AA; assay: two-hybrid library CCmax;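 note: natural log of median RNA to DNA barcode read ratio; higher means stronger binding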
APC9806-AA = target: T2, APC9806-AA; assay: two-hybrid library CCmax; conditions: mean of both orientations;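 note: natural log of median RNA to DNA barcode read ratio; higher means stronger binding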
4H497-AA = target: T3, 4H497-AA; assay: two-hybrid library CCmax; conditions: mean of both orientations;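 note: natural log of median RNA to DNA barcode read ratio; higher means stronger binding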
4H656-AA = target: T4, 4H656-AA; assay: two-hybrid library CCmax; conditions: mean of both orientations;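 note: natural log of median RNA to DNA barcode read ratio; higher means stronger binding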
4H3920-AA = target: T5, 4H3920-AA; assay: two-hybrid library CCmax;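 note: natural log of median RNA to DNA barcode read ratio; higher means stronger binding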
4H478-AA = target: T6, 4H478-AA; assay: two-hybrid library CCmax; conditions: mean of both orientations;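 note: natural log of median RNA to DNA barcode read ratio; higher means stronger binding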
4H675-AA = target: T7, 4H675-AA; assay: two-hybrid library CCmax; conditions: mean of both orientations
4H971-AA = target: T8, 4H971-AA; assay: two-hybrid library CCmax; conditions: mean of both orientations
4H3939-AA = target: T9, 4H3939-AA; assay: two-hybrid library CCmax; conditions: mean of both orientations
4H428-AA = target: T10, 4H428-AA; assay: two-hybrid library CCmax; conditions: mean of both orientations
4H3627-AA = target: T11, 4H3627-AA; assay: two-hybrid library CCmax; conditions: mean of both orientations
4H3655-AA = target: T12, 4H3655-AA; assay: two-hybrid library CCmax; conditions: mean of both orientations
4H881-AA = target: T13, 4H881-AA; assay: two-hybrid library CCmax; conditions: mean of both orientations
4H794-AA = target: T14, 4H794-AA; assay: two-hybrid library CCmax
4H429-AA = target: T15, 4H429-AA; assay: two-hybrid library CCmax; conditions: mean of both orientations
4H3606-AA = target: T16, 4H3606-AA; assay: two-hybrid library CCmax; conditions: mean of both orientations
4H48-AA = target: T17, 4H48-AA; assay: two-hybrid library CCmax; conditions: mean of both orientations
4H678-AA = target: T18, 4H678-AA; assay: two-hybrid library CCmax; conditions: mean of both orientations
4H566-AA = target: T19, 4H566-AA; assay: two-hybrid library CCmax; conditions: mean of both orientations
4H3921-AA = target: T20, 4H3921-AA; assay: two-hybrid library CCmax; conditions: mean of both orientations
4H454-AA = target: T21, 4H454-AA; assay: two-hybrid library CCmax; conditions: mean of both orientations
4H342-AA = target: T22, 4H342-AA; assay: two-hybrid library CCmax; conditions: mean of both orientations
4H3427-AA = target: T23, 4H3427-AA; assay: two-hybrid library CCmax; conditions: mean of both orientations
4H717-AA = target: T24, 4H717-AA; assay: two-hybrid library CCmax; conditions: mean of both orientations
4H3844-AA = target: T25, 4H3844-AA; assay: two-hybrid library CCmax; conditions: mean of both orientations
4H605-AA = target: T26, 4H605-AA; assay: two-hybrid library CCmax; conditions: mean of both orientations
4H906-AA = target: T27, 4H906-AA; assay: two-hybrid library CCmax; conditions: mean of both orientations
4H335-AA = target: T28, 4H335-AA; assay: two-hybrid library CCmax
4H993-AA = target: T29, 4H993-AA; assay: two-hybrid library CCmax; conditions: mean of both orientations
4H3343-AA = target: T30, 4H3343-AA; assay: two-hybrid library CCmax
4H780-AA = target: T31, 4H780-AA; assay: two-hybrid library CCmax; conditions: mean of both orientations
4H63-AA = target: T32, 4H63-AA; assay: two-hybrid library CCmax; conditions: mean of both orientations
4H483-AA = target: T33, 4H483-AA; assay: two-hybrid library CCmax
4H317-AA = target: T34, 4H317-AA; assay: two-hybrid library CCmax
4H3112-AA = target: T35, 4H3112-AA; assay: two-hybrid library CCmax; conditions: mean of both orientations
4H2949-AA = target: T36, 4H2949-AA; assay: two-hybrid library CCmax
4H432-AA = target: T37, 4H432-AA; assay: two-hybrid library CCmax; conditions: mean of both orientations
4H446-AA = target: T38, 4H446-AA; assay: two-hybrid library CCmax; conditions: mean of both orientations
4H3974-AA = target: T39, 4H3974-AA; assay: two-hybrid library CCmax
4H906-bN = target: T40, 4H906-bN; assay: two-hybrid library CCNG1
4H850-bN = target: T41, 4H850-bN; assay: two-hybrid library CCNG1

| Binder | interaction score (4H3627-AA) | interaction score (4H3655-AA) | interaction score (4H881-AA) | interaction score (4H794-AA; mean of both orientations) | interaction score (4H429-AA) | interaction score (4H3606-AA) | interaction score (4H48-AA) | interaction score (4H678-AA) | interaction score (4H566-AA) | interaction score (4H3921-AA) | interaction score (4H454-AA) | interaction score (4H342-AA) | interaction score (4H3427-AA) | interaction score (4H717-AA) | interaction score (4H3844-AA) | interaction score (4H605-AA) | interaction score (4H906-AA) | interaction score (4H335-AA; mean of both orientations) | interaction score (4H993-AA) | interaction score (4H780-AA) | further results |
| --- | --- | --- | --- | --- | --- | --- | --- | --- | --- | --- | --- | --- | --- | --- | --- | --- | --- | --- | --- | --- | --- |
| B1 | – | – | – | – | – | – | – | – | – | – | – | – | – | – | – | – | – | – | – | – | interaction score (APC9291-AA): -1.78; interaction score (APC9806-AA): -1.78 |
| B2 | – | – | – | – | – | – | – | – | – | – | – | – | – | – | – | – | – | – | – | – | interaction score (4H497-AA): -1.9; interaction score (4H656-AA): -1.01; interaction score (4H3920-AA): -1.57; interaction score (4H478-AA): -1.71; interaction score (4H675-AA): -1.22; interaction score (4H971-AA): -1.64; interaction score (4H3939-AA): -0.87; interaction score (4H428-AA): -0.945 |
| B3 | -0.363 | -1.03 | -1.72 | -1.33 | -1.22 | -1.94 | -0.868 | -1.08 | -1.55 | -1.44 | -0.866 | -1.13 | -0.88 | -1.27 | 0.2 | -1.38 | -1.17 | 0.806 | -1.4 | -1.16 | interaction score (4H3343-AA): 1.37 |
| B4 | – | – | – | – | – | – | – | – | – | – | – | – | – | – | – | – | – | – | – | – | interaction score (4H63-AA): -1.11; interaction score (4H483-AA): -2.02 |
| B5 | -1.38 | -1.3 | 1.71 | – | 1.91 | -0.156 | -0.564 | 1.69 | -0.649 | 0.152 | 1.98 | 0.399 | -0.95 | -0.385 | -1.79 | -0.239 | -1.01 | -0.276 | 1.65 | -1.49 | interaction score (4H794-AA): -1; interaction score (4H317-AA; mean of both orientations): 1.47; interaction score (4H3112-AA): -0.654; interaction score (4H2949-AA): 1.3; interaction score (4H3343-AA; mean of both orientations): -1.48 |
| B6 | – | – | – | – | – | – | – | – | – | – | – | – | – | – | – | – | – | – | – | – | interaction score (4H432-AA): -0.198; interaction score (4H446-AA): -0.724; interaction score (4H63-AA): -0.932; interaction score (4H3974-AA): -0.00837 |
| B7 | -0.771 | -0.949 | 1.38 | 0.104 | -0.459 | 2.23 | 0.228 | 0.755 | 1.74 | 1.81 | -1.04 | 2.15 | 1.23 | -1.63 | -0.686 | -0.441 | 0.51 | -0.361 | -1.11 | -1.52 | interaction score (4H317-AA): 1.28; interaction score (4H3343-AA; mean of both orientations): -1.56 |
| B8 | 1.23 | 0.662 | -1.54 | -1.3 | -0.695 | – | – | -1.15 | -1.09 | -0.804 | 0.512 | -0.154 | -0.982 | -1.46 | 1.22 | -1.51 | -1.22 | – | -0.48 | -0.326 | interaction score (4H335-AA): 1.81 |
| B9 | – | – | – | – | – | – | – | – | – | – | – | – | – | – | – | – | – | – | – | – | interaction score (4H906-bN): -0.386; interaction score (4H850-bN): 0.186 |
